Here are results for 2 molecules from patent US8497072.

For this test, the target named is soluble amyloid precursor protein alpha (UniProt P05067). The experiment in a line: sandwich ELISA, EC50 of this antigen divided by EC50 of Aβ(1-42) globulomer. A general note: An ELISA detects its analyte on a solid surface through an enzyme-linked reagent.

Substitutions are numbered along the chain they refer to.

B1: monoclonal antibody 8C5 (antibody, V domains shown)
VH: EVQLVESGGGLVQPGGSLKLSCTASGFTFSSYGMSWVRQTPDKRLELVASIKNNGGSTYYPDSLKGRFTISRDNAKNTLYLQMSSLKSEDTAMYYCASGDYWGQGTTLTVSS
VL: DVVMTQTPLSLPVSLGDQASISCRSSQSLVHSNGDTFLHWYLQKPGQSPKLLIYKVSNRFSGVPDRFSGSGSGTDFTLKISRVEAEDLGIYFCSQSIHVPWTFGGGTKLEIKR
With B1, the selectivity factor (EC50 ratio against Aβ(1-42) globulomer) is more than 100 fold.

B2: monoclonal antibody 8F5 (antibody, V domains shown)
VH: B1 VH with T23A, K52N, N53S, L64V, T106S
VL: B1 VL with H31Y, F37Y, I90V, I97T
For the molecule B2, the selectivity factor (EC50 ratio against Aβ(1-42) globulomer) is more than 100 fold.
